Measured values as given in patent US20260167699A1 (Chugai, published 2026).

T1: FcγRIIa(R) extracellular domain, His-tagged (human, UniProt P12318 34-217)
T1 construct: extracellular domain; also called 2aR
T1 sequence: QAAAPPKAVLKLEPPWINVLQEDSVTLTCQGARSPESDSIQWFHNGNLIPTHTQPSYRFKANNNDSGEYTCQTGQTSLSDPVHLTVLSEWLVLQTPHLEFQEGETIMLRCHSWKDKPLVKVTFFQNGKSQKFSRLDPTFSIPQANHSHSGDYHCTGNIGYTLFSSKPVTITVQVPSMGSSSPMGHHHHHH

T2: FcγRIIa(H) extracellular domain, His-tagged (human, UniProt P12318 34-217)
T2 construct: extracellular domain; also called 2aH
T2 sequence: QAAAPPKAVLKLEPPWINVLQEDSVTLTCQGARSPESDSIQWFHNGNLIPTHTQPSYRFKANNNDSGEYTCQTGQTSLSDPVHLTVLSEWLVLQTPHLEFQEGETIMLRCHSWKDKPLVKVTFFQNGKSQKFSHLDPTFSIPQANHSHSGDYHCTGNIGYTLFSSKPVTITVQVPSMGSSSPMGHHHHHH

T3: FcγRIIb extracellular domain, His-tagged (human, UniProt P31994 43-217)
T3 construct: extracellular domain; also called 2b
T3 sequence: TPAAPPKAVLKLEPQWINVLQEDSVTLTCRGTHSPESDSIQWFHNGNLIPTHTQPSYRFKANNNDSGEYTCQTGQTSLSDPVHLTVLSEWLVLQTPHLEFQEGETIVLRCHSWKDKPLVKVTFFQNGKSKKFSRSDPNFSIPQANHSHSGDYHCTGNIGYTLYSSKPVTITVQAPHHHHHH


Tests used:
Test in all cases: SPR, vs GpH7-A5/GpH7-B3/GpL16-k0 =100
[1] = target: T4, FcγRIa extracellular domain, His-tagged (human, UniProt P12314 16-292)
T4 construct: extracellular domain; also called 1a
T4 sequence (P12314 other isoform, or with tags, fused parts or gaps): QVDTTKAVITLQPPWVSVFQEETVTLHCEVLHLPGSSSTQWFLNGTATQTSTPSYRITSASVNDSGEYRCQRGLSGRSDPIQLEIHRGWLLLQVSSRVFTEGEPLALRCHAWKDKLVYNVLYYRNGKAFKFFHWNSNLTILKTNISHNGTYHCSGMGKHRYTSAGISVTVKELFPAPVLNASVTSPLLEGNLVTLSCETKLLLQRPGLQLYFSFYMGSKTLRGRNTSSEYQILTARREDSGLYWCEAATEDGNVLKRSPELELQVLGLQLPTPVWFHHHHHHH

[2] = target: T1, FcγRIIa(R) extracellular domain, …
[3] = target: T2, FcγRIIa(H) extracellular domain, …
[4] = target: T3, FcγRIIb extracellular domain, His-tagged
[5] = target: T5, FcγRIIIa extracellular domain, His-tagged (human, UniProt P08637 17-208)
T5 construct: extracellular domain; also called 3a
T5 sequence (P08637 other isoform, or with tags, fused parts or gaps): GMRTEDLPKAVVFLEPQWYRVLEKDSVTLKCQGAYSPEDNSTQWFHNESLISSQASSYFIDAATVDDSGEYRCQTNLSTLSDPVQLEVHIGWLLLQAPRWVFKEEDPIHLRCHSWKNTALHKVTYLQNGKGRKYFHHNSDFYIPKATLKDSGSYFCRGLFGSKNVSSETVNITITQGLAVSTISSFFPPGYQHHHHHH

Row | Binder | He/Con 1a [1] | He/Con 2aR [2] | He/Con 2aH [3] | He/Con 2b [4] | He/Con 3a [5]
1 | GpH7-A5/GpH7-B3 variant P271_10E/GpL16-k0 (antibody, human IgG1, kappa) heavy 1: not shown heavy 2: not shown light: DIVMTQSPLSLPVTPGEPASISCQASESLVHSNRNTYLHWYLQKPGQSPQLLIYKVSNRFSGVPDRFSGSGSGTDFTLKISRVEAEDVGVYYCSQNTHVPPTFGQGTKVEIERTVAAPSVFIFPPSDEQLKSGTASVVCLLNNFYPREAKVQWKVDNALQSGNSQESVTEQDSKDSTYSLSSTLTLSKADYEKHKVYACEVTHQGLSSPVTKSFNRGEC | 101 % of control | 102 % of control | 72.4 % of control | 122 % of control | 98.2 % of control
2 | GpH7-A5/GpH7-B3 variant P271_11K/GpL16-k0 (antibody, human IgG1, kappa) heavy 1: not shown heavy 2: not shown light: DIVMTQSPLSLPVTPGEPASISCQASESLVHSNRNTYLHWYLQKPGQSPQLLIYKVSNRFSGVPDRFSGSGSGTDFTLKISRVEAEDVGVYYCSQNTHVPPTFGQGTKVEIERTVAAPSVFIFPPSDEQLKSGTASVVCLLNNFYPREAKVQWKVDNALQSGNSQESVTEQDSKDSTYSLSSTLTLSKADYEKHKVYACEVTHQGLSSPVTKSFNRGEC | 101 % of control | 97.3 % of control | 100 % of control | 101 % of control | 92.5 % of control
3 | GpH7-A5/GpH7-B3 variant P271_13S/GpL16-k0 (antibody, human IgG1, kappa) heavy 1: not shown heavy 2: not shown light: DIVMTQSPLSLPVTPGEPASISCQASESLVHSNRNTYLHWYLQKPGQSPQLLIYKVSNRFSGVPDRFSGSGSGTDFTLKISRVEAEDVGVYYCSQNTHVPPTFGQGTKVEIERTVAAPSVFIFPPSDEQLKSGTASVVCLLNNFYPREAKVQWKVDNALQSGNSQESVTEQDSKDSTYSLSSTLTLSKADYEKHKVYACEVTHQGLSSPVTKSFNRGEC | 101 % of control | 93.5 % of control | 83.3 % of control | 98.2 % of control | 79.8 % of control
4 | GpH7-A5/GpH7-B3 variant Q295_06M/GpL16-k0 (antibody, human IgG1, kappa) heavy 1: not shown heavy 2: not shown light: DIVMTQSPLSLPVTPGEPASISCQASESLVHSNRNTYLHWYLQKPGQSPQLLIYKVSNRFSGVPDRFSGSGSGTDFTLKISRVEAEDVGVYYCSQNTHVPPTFGQGTKVEIERTVAAPSVFIFPPSDEQLKSGTASVVCLLNNFYPREAKVQWKVDNALQSGNSQESVTEQDSKDSTYSLSSTLTLSKADYEKHKVYACEVTHQGLSSPVTKSFNRGEC | 102 % of control | 101 % of control | 111 % of control | 101 % of control | 100 % of control
5 | GpH7-A5/GpH7-B3 variant P271_16H/GpL16-k0 (antibody, human IgG1, kappa) heavy 1: not shown heavy 2: not shown light: DIVMTQSPLSLPVTPGEPASISCQASESLVHSNRNTYLHWYLQKPGQSPQLLIYKVSNRFSGVPDRFSGSGSGTDFTLKISRVEAEDVGVYYCSQNTHVPPTFGQGTKVEIERTVAAPSVFIFPPSDEQLKSGTASVVCLLNNFYPREAKVQWKVDNALQSGNSQESVTEQDSKDSTYSLSSTLTLSKADYEKHKVYACEVTHQGLSSPVTKSFNRGEC | 100 % of control | 79 % of control | 76.4 % of control | 76.2 % of control | 70.3 % of control
6 | GpH7-A5/GpH7-B3 variant Q295_05P/GpL16-k0 (antibody, human IgG1, kappa) heavy 1: not shown heavy 2: not shown light: DIVMTQSPLSLPVTPGEPASISCQASESLVHSNRNTYLHWYLQKPGQSPQLLIYKVSNRFSGVPDRFSGSGSGTDFTLKISRVEAEDVGVYYCSQNTHVPPTFGQGTKVEIERTVAAPSVFIFPPSDEQLKSGTASVVCLLNNFYPREAKVQWKVDNALQSGNSQESVTEQDSKDSTYSLSSTLTLSKADYEKHKVYACEVTHQGLSSPVTKSFNRGEC | 102 % of control | 86.6 % of control | 118 % of control | 75.7 % of control | 74.4 % of control

More lines, now with the values ahead:

Row | He/Con 1a [1] | He/Con 2aR [2] | He/Con 2aH [3] | He/Con 2b [4] | He/Con 3a [5] | Binder
7 | 101 % of control | 76.6 % of control | 88.7 % of control | 65.1 % of control | 77.8 % of control | GpH7-A5/GpH7-B3 variant P271_20W/GpL16-k0 (antibody, human IgG1, kappa) heavy 1: not shown heavy 2: not shown light: DIVMTQSPLSLPVTPGEPASISCQASESLVHSNRNTYLHWYLQKPGQSPQLLIYKVSNRFSGVPDRFSGSGSGTDFTLKISRVEAEDVGVYYCSQNTHVPPTFGQGTKVEIERTVAAPSVFIFPPSDEQLKSGTASVVCLLNNFYPREAKVQWKVDNALQSGNSQESVTEQDSKDSTYSLSSTLTLSKADYEKHKVYACEVTHQGLSSPVTKSFNRGEC
8 | 101 % of control | 70 % of control | 74 % of control | 58.6 % of control | 62.7 % of control | GpH7-A5/GpH7-B3 variant P271_15Y/GpL16-k0 (antibody, human IgG1, kappa) heavy 1: not shown heavy 2: not shown light: DIVMTQSPLSLPVTPGEPASISCQASESLVHSNRNTYLHWYLQKPGQSPQLLIYKVSNRFSGVPDRFSGSGSGTDFTLKISRVEAEDVGVYYCSQNTHVPPTFGQGTKVEIERTVAAPSVFIFPPSDEQLKSGTASVVCLLNNFYPREAKVQWKVDNALQSGNSQESVTEQDSKDSTYSLSSTLTLSKADYEKHKVYACEVTHQGLSSPVTKSFNRGEC
9 | 102 % of control | 90.3 % of control | 106 % of control | 84.9 % of control | 86.2 % of control | GpH7-A5/GpH7-B3 variant Q295_03V/GpL16-k0 (antibody, human IgG1, kappa) heavy 1: not shown heavy 2: not shown light: DIVMTQSPLSLPVTPGEPASISCQASESLVHSNRNTYLHWYLQKPGQSPQLLIYKVSNRFSGVPDRFSGSGSGTDFTLKISRVEAEDVGVYYCSQNTHVPPTFGQGTKVEIERTVAAPSVFIFPPSDEQLKSGTASVVCLLNNFYPREAKVQWKVDNALQSGNSQESVTEQDSKDSTYSLSSTLTLSKADYEKHKVYACEVTHQGLSSPVTKSFNRGEC
10 | 101 % of control | 95.8 % of control | 100 % of control | 96.9 % of control | 87.6 % of control | GpH7-A5/GpH7-B3 variant P271_12R/GpL16-k0 (antibody, human IgG1, kappa) heavy 1: not shown heavy 2: not shown light: DIVMTQSPLSLPVTPGEPASISCQASESLVHSNRNTYLHWYLQKPGQSPQLLIYKVSNRFSGVPDRFSGSGSGTDFTLKISRVEAEDVGVYYCSQNTHVPPTFGQGTKVEIERTVAAPSVFIFPPSDEQLKSGTASVVCLLNNFYPREAKVQWKVDNALQSGNSQESVTEQDSKDSTYSLSSTLTLSKADYEKHKVYACEVTHQGLSSPVTKSFNRGEC
11 | 102 % of control | 97.7 % of control | 94.5 % of control | 105 % of control | 94 % of control | GpH7-A5/GpH7-B3 variant P271_18N/GpL16-k0 (antibody, human IgG1, kappa) heavy 1: not shown heavy 2: not shown light: DIVMTQSPLSLPVTPGEPASISCQASESLVHSNRNTYLHWYLQKPGQSPQLLIYKVSNRFSGVPDRFSGSGSGTDFTLKISRVEAEDVGVYYCSQNTHVPPTFGQGTKVEIERTVAAPSVFIFPPSDEQLKSGTASVVCLLNNFYPREAKVQWKVDNALQSGNSQESVTEQDSKDSTYSLSSTLTLSKADYEKHKVYACEVTHQGLSSPVTKSFNRGEC
12 | 103 % of control | 91.5 % of control | 101 % of control | 89.4 % of control | 111 % of control | GpH7-A5/GpH7-B3 variant Q295_02A/GpL16-k0 (antibody, human IgG1, kappa) heavy 1: not shown heavy 2: not shown light: DIVMTQSPLSLPVTPGEPASISCQASESLVHSNRNTYLHWYLQKPGQSPQLLIYKVSNRFSGVPDRFSGSGSGTDFTLKISRVEAEDVGVYYCSQNTHVPPTFGQGTKVEIERTVAAPSVFIFPPSDEQLKSGTASVVCLLNNFYPREAKVQWKVDNALQSGNSQESVTEQDSKDSTYSLSSTLTLSKADYEKHKVYACEVTHQGLSSPVTKSFNRGEC
13 | 102 % of control | 95.1 % of control | 90.7 % of control | 99.3 % of control | 84.6 % of control | GpH7-A5/GpH7-B3 variant P271_19Q/GpL16-k0 (antibody, human IgG1, kappa) heavy 1: not shown heavy 2: not shown light: DIVMTQSPLSLPVTPGEPASISCQASESLVHSNRNTYLHWYLQKPGQSPQLLIYKVSNRFSGVPDRFSGSGSGTDFTLKISRVEAEDVGVYYCSQNTHVPPTFGQGTKVEIERTVAAPSVFIFPPSDEQLKSGTASVVCLLNNFYPREAKVQWKVDNALQSGNSQESVTEQDSKDSTYSLSSTLTLSKADYEKHKVYACEVTHQGLSSPVTKSFNRGEC
14 | 101 % of control | 94.7 % of control | 69.8 % of control | 107 % of control | 59.2 % of control | GpH7-A5/GpH7-B3 variant P271_14T/GpL16-k0 (antibody, human IgG1, kappa) heavy 1: not shown heavy 2: not shown light: DIVMTQSPLSLPVTPGEPASISCQASESLVHSNRNTYLHWYLQKPGQSPQLLIYKVSNRFSGVPDRFSGSGSGTDFTLKISRVEAEDVGVYYCSQNTHVPPTFGQGTKVEIERTVAAPSVFIFPPSDEQLKSGTASVVCLLNNFYPREAKVQWKVDNALQSGNSQESVTEQDSKDSTYSLSSTLTLSKADYEKHKVYACEVTHQGLSSPVTKSFNRGEC
15 | 101 % of control | 82.8 % of control | 87.4 % of control | 72.6 % of control | 75.1 % of control | GpH7-A5/GpH7-B3 variant Q295_04F/GpL16-k0 (antibody, human IgG1, kappa) heavy 1: not shown heavy 2: not shown light: DIVMTQSPLSLPVTPGEPASISCQASESLVHSNRNTYLHWYLQKPGQSPQLLIYKVSNRFSGVPDRFSGSGSGTDFTLKISRVEAEDVGVYYCSQNTHVPPTFGQGTKVEIERTVAAPSVFIFPPSDEQLKSGTASVVCLLNNFYPREAKVQWKVDNALQSGNSQESVTEQDSKDSTYSLSSTLTLSKADYEKHKVYACEVTHQGLSSPVTKSFNRGEC
